In patent US20220195407, “OPTIMIZATION OF ENGINEERED MEGANUCLEASES FOR RECOGNITION SEQUENCES” (Precision BioSciences, Inc., published 2022):

Experiments:
Experiment in all cases: cell_activity; CHO iGFFP reporter
[1] = molecular target: T1, LOX 3-4m.2229 (artificial (I-CreI derived))
T1 chain: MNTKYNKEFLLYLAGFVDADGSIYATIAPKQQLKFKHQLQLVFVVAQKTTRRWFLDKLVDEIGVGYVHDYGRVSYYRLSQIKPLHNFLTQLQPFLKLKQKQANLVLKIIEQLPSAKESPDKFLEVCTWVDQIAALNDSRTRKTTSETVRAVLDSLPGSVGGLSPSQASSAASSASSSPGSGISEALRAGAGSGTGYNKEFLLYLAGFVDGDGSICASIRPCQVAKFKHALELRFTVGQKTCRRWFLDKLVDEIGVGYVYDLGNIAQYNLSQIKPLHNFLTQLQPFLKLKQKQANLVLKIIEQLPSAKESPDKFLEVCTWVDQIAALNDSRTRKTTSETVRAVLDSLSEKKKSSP
Text: (§1) A CHO cell reporter system (see WO/2012/167192, FIG. 3) was used to determine whether the engineered meganucleases generated in these studies could recognize and cleave the modified LOX 3-4 recognition sequences in Table 87. To perform the assay, a pair of CHO cell reporter lines were produced, which carried a non-functional Green Fluorescent Protein (GFP) gene expression cassette integrated into the genome of the cell. The GFP gene in each cell line was interrupted by a pair of recognition sequences such that intracellular cleavage of either recognition sequence by a meganuclease would stimulate a homologous recombination event resulting in a functional GFP gene. In both cell lines, one of the recognition sequences was derived from the LOX 3-4 recognition sequence (i.e., those sequences disclosed in Table 87), and the second recognition sequence was specifically recognized by a control meganuclease called “CHO 23/24.” CHO reporter cells comprising a recognition sequence derived from the LOX 3-4 recognition sequence and the CHO 23/24 recognition sequence are referred to herein as “test cells.”
(§2) Novel engineered meganucleases derived from the LOX 3-4x.109 meganuclease were prepared by making amino acid substitutions at one or more positions in the first subunit and one or more positions in the second subunit. These engineered meganucleases were then evaluated for cleavage of the LOX 3-4 recognition sequence modified to have a TCAA center sequence (SEQ ID NO: 331) in the CHO reporter assay according to Example 1.

[2] = molecular target: T2, LOX 3-4m.2165 (artificial (I-CreI derived))
T2 chain: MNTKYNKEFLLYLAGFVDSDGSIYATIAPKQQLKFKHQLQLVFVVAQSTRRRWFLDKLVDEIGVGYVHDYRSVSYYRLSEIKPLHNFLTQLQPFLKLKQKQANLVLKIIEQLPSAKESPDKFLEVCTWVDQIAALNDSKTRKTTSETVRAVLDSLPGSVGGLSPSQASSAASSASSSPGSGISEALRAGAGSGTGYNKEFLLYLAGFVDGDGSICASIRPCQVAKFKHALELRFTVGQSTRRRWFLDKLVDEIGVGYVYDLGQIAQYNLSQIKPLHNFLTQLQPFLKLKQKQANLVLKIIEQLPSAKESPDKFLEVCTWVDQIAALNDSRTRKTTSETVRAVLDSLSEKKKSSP
Text: as §1, §2

[3] = molecular target: T3, LOX 3-4m.2157 (artificial (I-CreI derived))
T3 chain: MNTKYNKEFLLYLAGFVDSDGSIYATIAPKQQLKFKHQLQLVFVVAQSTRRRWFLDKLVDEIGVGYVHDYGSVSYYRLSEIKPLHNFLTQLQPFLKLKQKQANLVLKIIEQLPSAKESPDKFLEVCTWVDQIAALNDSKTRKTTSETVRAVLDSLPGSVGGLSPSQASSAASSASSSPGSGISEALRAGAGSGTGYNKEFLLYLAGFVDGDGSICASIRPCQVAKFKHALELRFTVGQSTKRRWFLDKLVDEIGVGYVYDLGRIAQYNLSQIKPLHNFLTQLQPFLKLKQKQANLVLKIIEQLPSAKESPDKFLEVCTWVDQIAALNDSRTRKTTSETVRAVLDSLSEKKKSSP
Text: as §1, §2

[4] = molecular target: T4, LOX 3-4m.2189 (artificial (I-CreI derived))
T4 chain: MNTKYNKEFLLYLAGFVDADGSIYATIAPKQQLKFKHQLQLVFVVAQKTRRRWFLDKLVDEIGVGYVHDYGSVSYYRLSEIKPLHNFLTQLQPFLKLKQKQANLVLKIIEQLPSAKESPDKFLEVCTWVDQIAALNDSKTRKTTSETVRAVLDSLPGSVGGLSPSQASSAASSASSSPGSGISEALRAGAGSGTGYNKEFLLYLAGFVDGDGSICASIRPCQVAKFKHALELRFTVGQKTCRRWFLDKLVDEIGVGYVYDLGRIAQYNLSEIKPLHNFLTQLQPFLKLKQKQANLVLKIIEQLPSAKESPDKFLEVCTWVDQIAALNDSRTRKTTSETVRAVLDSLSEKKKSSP
Text: as §1, §2

[5] = molecular target: T5, LOX 3-4m.2151 (artificial (I-CreI derived))
T5 chain: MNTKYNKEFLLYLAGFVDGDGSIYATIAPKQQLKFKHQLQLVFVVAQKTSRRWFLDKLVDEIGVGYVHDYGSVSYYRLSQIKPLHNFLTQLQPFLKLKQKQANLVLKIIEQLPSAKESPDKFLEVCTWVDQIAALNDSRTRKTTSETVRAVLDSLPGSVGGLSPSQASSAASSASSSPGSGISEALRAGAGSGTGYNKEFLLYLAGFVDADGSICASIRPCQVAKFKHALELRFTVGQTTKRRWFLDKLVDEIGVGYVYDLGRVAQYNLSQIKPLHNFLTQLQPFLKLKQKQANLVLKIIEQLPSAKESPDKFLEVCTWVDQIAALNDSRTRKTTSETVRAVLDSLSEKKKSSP
Text: as §1
as §2, with “TTAA” for “TCAA”, “341)” for “331)”, “1. The substitutions in each subunit are provided in Tables 174 and 175, respectively.” for “1.”

[6] = molecular target: T6, LOX 3-4m.2125 (artificial (I-CreI derived))
T6 chain: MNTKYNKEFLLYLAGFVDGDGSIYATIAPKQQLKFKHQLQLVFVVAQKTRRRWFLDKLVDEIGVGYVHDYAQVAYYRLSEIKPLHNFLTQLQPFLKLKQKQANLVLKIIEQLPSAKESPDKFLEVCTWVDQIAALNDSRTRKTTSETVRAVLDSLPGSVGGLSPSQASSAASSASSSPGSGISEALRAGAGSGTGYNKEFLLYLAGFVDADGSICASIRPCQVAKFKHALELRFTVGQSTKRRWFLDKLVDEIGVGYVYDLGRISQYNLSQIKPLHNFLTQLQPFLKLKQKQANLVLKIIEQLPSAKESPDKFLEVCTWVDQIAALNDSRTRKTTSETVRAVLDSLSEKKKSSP
Text: as §1
as §2, with “TTAA” for “TCAA”, “341)” for “331)”, “1. The substitutions in each subunit are provided in Tables 174 and 175, respectively.” for “1.”

[7] = molecular target: T7, LOX 3-4m.2142 (artificial (I-CreI derived))
T7 chain: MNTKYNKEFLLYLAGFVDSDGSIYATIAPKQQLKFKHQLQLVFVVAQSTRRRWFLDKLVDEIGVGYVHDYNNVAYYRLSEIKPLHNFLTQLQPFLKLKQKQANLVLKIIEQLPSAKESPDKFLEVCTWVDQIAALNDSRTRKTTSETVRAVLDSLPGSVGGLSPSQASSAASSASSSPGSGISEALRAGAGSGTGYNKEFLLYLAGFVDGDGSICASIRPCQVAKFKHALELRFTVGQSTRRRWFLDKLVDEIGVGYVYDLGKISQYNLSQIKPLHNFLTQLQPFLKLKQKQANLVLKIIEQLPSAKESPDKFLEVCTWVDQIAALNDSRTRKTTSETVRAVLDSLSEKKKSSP
Text: as §1
as §2, with “TTAA” for “TCAA”, “341)” for “331)”, “1. The substitutions in each subunit are provided in Tables 174 and 175, respectively.” for “1.”

[8] = molecular target: T8, LOX 3-4m.2145 (artificial (I-CreI derived))
T8 chain: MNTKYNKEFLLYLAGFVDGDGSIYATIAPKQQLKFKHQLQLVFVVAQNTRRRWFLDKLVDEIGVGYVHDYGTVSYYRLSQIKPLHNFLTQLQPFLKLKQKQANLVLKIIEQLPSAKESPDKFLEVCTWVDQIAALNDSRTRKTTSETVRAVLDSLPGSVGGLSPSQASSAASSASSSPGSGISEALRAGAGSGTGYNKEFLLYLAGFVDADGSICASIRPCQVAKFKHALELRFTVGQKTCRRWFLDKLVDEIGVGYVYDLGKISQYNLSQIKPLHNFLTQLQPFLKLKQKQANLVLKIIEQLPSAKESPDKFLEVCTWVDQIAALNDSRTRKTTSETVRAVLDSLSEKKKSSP
Text: as §1
as §2, with “TTAA” for “TCAA”, “341)” for “331)”, “1. The substitutions in each subunit are provided in Tables 174 and 175, respectively.” for “1.”

[9] = molecular target: T9, LOX 3-4m.1970 (artificial (I-CreI derived))
T9 chain: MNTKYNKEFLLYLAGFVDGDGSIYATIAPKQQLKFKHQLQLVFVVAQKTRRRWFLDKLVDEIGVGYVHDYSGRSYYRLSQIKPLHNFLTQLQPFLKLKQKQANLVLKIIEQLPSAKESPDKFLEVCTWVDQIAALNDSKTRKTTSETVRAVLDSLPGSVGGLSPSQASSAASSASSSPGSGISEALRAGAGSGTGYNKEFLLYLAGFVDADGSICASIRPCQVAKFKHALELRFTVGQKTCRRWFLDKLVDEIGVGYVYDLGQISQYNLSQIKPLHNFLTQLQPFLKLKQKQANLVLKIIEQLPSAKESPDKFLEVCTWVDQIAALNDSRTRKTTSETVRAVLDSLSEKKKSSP
Text: as §1
as §2, with “subunit. The N-terminal subunit recognizes the reverse complement of the AG portion of the four base pair center sequence, which is CT, and the C-terminal subunit recognizes the GC portion of the […] center sequence.” for “subunit.”, “TTGG” for “TCAA”, “248)” for “331)”, “1. The substitutions in each subunit are provided in Tables 177 and 178, respectively.” for “1.”

[10] = molecular target: T10, LOX 3-4m.1981 (artificial (I-CreI derived))
T10 chain: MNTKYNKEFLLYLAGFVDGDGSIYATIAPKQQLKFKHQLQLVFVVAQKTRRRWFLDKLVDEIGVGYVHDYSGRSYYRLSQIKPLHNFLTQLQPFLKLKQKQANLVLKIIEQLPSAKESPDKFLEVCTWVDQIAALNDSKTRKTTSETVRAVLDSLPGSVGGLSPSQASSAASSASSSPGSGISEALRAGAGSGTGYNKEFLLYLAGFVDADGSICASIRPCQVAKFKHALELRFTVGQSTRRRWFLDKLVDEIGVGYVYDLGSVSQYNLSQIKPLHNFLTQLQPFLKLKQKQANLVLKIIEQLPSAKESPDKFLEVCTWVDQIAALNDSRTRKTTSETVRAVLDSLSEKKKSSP
Text: as §1
as §2, with “subunit. The N-terminal subunit recognizes the reverse complement of the AG portion of the four base pair center sequence, which is CT, and the C-terminal subunit recognizes the GC portion of the […] center sequence.” for “subunit.”, “TTGG” for “TCAA”, “248)” for “331)”, “1. The substitutions in each subunit are provided in Tables 177 and 178, respectively.” for “1.”

[11] = molecular target: T11, LOX 3-4m.1973 (artificial (I-CreI derived))
T11 chain: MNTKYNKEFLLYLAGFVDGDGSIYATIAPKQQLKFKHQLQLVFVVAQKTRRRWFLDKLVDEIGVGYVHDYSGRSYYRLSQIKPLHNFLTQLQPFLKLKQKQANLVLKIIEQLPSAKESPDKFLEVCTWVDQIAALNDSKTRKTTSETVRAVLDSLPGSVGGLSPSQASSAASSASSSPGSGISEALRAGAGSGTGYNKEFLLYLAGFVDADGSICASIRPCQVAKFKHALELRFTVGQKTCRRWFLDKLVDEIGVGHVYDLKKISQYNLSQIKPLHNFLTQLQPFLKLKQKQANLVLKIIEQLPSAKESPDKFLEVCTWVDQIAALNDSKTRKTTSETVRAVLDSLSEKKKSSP
Text: as §1
as §2, with “subunit. The N-terminal subunit recognizes the reverse complement of the AG portion of the four base pair center sequence, which is CT, and the C-terminal subunit recognizes the GC portion of the […] center sequence.” for “subunit.”, “TTGG” for “TCAA”, “248)” for “331)”, “1. The substitutions in each subunit are provided in Tables 177 and 178, respectively.” for “1.”

[12] = molecular target: T12, LOX 3-4m.2045 (artificial (I-CreI derived))
T12 chain: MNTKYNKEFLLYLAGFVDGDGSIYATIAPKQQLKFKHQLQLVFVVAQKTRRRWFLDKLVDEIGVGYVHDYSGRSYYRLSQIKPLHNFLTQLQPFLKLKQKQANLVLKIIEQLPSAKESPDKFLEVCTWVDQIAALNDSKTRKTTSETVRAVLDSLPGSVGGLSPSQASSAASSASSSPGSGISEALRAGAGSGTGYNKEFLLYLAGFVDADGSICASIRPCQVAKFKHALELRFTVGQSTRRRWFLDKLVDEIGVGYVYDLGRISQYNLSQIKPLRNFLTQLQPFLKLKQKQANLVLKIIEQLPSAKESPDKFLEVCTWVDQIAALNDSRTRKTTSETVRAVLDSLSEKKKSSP
Text: as §1
as §2, with “subunit. The N-terminal subunit recognizes the reverse complement of the AG portion of the four base pair center sequence, which is CT, and the C-terminal subunit recognizes the GC portion of the […] center sequence.” for “subunit.”, “TTGG” for “TCAA”, “248)” for “331)”, “1. The substitutions in each subunit are provided in Tables 177 and 178, respectively.” for “1.”

B1: LOX 3-4 TCAA (dsDNA)
DNA 1: GTATAGCATTCAATATACGAAG
DNA 2: CTTCGTATATTGAATGCTATAC
activity [1]: 11.8 % GFP | activity [2]: 10.3 % GFP | activity [3]: 9.79 % GFP | activity [4]: 11.7 % GFP

B2: LOX 3-4 TTAA (dsDNA)
DNA 1: GTATAGCATTTAATATACGAAG
DNA 2: CTTCGTATATTAAATGCTATAC
activity [5]: 13 % GFP | activity [6]: 12.7 % GFP | activity [7]: 13.9 % GFP | activity [8]: 12.9 % GFP

B3: LOX 3-4 TTGG (dsDNA)
DNA 1: GTATAGCATTTGGTATACGAAG
DNA 2: CTTCGTATACCAAATGCTATAC
activity [9]: 13.5 % GFP | activity [10]: 13.5 % GFP | activity [11]: 14.3 % GFP | activity [12]: 14.2 % GFP
